Measurements as given in the supplement of paper PMC10126150.
± gives the standard deviation of the averaged measurements.

System: ATP
Test: switch fluorescence ratio, 500 uM ATP over buffer (Cy3 cluster intensity, sum of 5 cycles each) (fold (ratio)); higher = stronger signal-on switching upon ATP binding; sequences stand for … in TCGTCGGCAGCGTCAGATGTGTATAAGAGACAGTTTTTTTTTTTTTTTTTTTTTTTTT…TC
Conditions: aptamer strand: ATP DNA aptamer (quencher-CACCTGGGGGAGTATTGCGGAGGAAGG + anchor), 100 nM annealed; ATP concentration: 500 uM
Method in brief: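 Values give the fluorescence ratio for each switch-domain sequence, averaged from per-cluster ratios of summed target-cycle to summed buffer-cycle Cy3 intensity. The Cy3-labelled switching-strand clusters sat on a modified Illumina MiSeq flow-cell, were annealed to 100 nM quencher-labelled ATP aptamer, and were imaged in selection buffer, then after 15 min with 500 uM ATP at 22 °C. Five cycles ran with NaOH stripping and re-annealing between them, and clusters outside 100-1000 RFU were excluded.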
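Further: ATP exposure 15 min at 22 °C before imaging.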

With GCGATGGAAT the switch fluorescence ratio was 1.1282 ± 6e-05.
In the case of GCGATGGCTG, the switch fluorescence ratio is reported as 0.957 ± 0.015.
In the case of GCGATTAGTT, the switch fluorescence ratio is reported as 0.9711 ± 0.0012.
Sequence GCGATTGGCT has a switch fluorescence ratio of 1.06 ± 0.018.
GCGATTTAGA showed a switch fluorescence ratio of 0.994 ± 0.016.
Work on GCGATTTTTA yielded a switch fluorescence ratio of 1.09 ± 0.089.
For GCGCAGGTAA, the switch fluorescence ratio was 1.04 ± 0.013.
GCGCAGTGGC showed a switch fluorescence ratio of 1.23 ± 0.058.
GCGCCAAGGA was tested, and the switch fluorescence ratio was 1.08 ± 0.09.
In the case of GCGCCAGTTT, the switch fluorescence ratio is reported as 0.992 ± 0.02.
GCGCCCATCT was tested, and the switch fluorescence ratio was 1.02 ± 0.017.
GCGCCTTGTG was tested, and the switch fluorescence ratio was 0.988 ± 0.018.
GCGCGAGGGG showed a switch fluorescence ratio of 1.01 ± 0.02.
Work on GCGCGATGGA yielded a switch fluorescence ratio of 1.03 ± 0.019.
With GCGCGGGGGG the switch fluorescence ratio was 1.02 ± 0.03.
Sequence GCGCGTAGGC has a switch fluorescence ratio of 1 ± 0.021.
For GCGCGTCGCA, the switch fluorescence ratio was 1.02 ± 0.025.
In the case of GCGCGTGGAG, the switch fluorescence ratio is reported as 1.04 ± 0.03.
In the case of GCGCTCGAGT, the switch fluorescence ratio is reported as 1.018 ± 0.0074.
In the case of GCGCTCTTAT, the switch fluorescence ratio is reported as 1.001 ± 0.003.
Work on GCGCTGCATT yielded a switch fluorescence ratio of 1.06 ± 0.037.
With GCGCTTAAAT the switch fluorescence ratio was 1.03 ± 0.057.
Work on GCGGACCCTC yielded a switch fluorescence ratio of 1.03 ± 0.05.
GCGGACTAGT showed a switch fluorescence ratio of 0.9883 ± 0.0052.
In the case of GCGGAGAGAG, the switch fluorescence ratio is reported as 0.998 ± 0.019.
Work on GCGGAGGCGG yielded a switch fluorescence ratio of 0.976 ± 0.031.
Work on GCGGAGGGGC yielded a switch fluorescence ratio of 1.0106 ± 3e-05.
Work on GCGGAGGGTG yielded a switch fluorescence ratio of 1.028 ± 0.0092.
GCGGATGTAG was tested, and the switch fluorescence ratio was 1.01 ± 0.03.
For GCGGATTAGG, the switch fluorescence ratio was 1.03 ± 0.0072.
For GCGGCACATA, the switch fluorescence ratio was 1.09 ± 0.042.
Work on GCGGCAGGGA yielded a switch fluorescence ratio of 0.997 ± 0.049.
GCGGCGCTTA showed a switch fluorescence ratio of 1.02 ± 0.016.
With GCGGCGGGTT the switch fluorescence ratio was 1.04 ± 0.064.
Work on GCGGCGGTGC yielded a switch fluorescence ratio of 1.02 ± 0.031.
GCGGCTGATG gave a switch fluorescence ratio of 1.02 ± 0.012.
GCGGGAATTG showed a switch fluorescence ratio of 0.981 ± 0.023.
For GCGGGAGGTC, the switch fluorescence ratio was 1.03 ± 0.013.
Work on GCGGGATGCA yielded a switch fluorescence ratio of 0.993 ± 0.033.
For GCGGGCCTGG, the switch fluorescence ratio was 1.01 ± 0.037.
GCGGGCTGGA was tested, and the switch fluorescence ratio was 1.01 ± 0.044.
Sequence GCGGGGAAAT has a switch fluorescence ratio of 0.971 ± 0.021.
Sequence GCGGGGAATT has a switch fluorescence ratio of 1.02 ± 0.026.
GCGGGGCTAG showed a switch fluorescence ratio of 0.989 ± 0.024.
GCGGGGGATC was tested, and the switch fluorescence ratio was 1 ± 0.03.
Work on GCGGGGGCAA yielded a switch fluorescence ratio of 1.0292 ± 0.00013.
For GCGGGGGGAG, the switch fluorescence ratio was 1.02 ± 0.043.
With GCGGGGGGGT the switch fluorescence ratio was 1.01 ± 0.038.
GCGGGGGGTT showed a switch fluorescence ratio of 1.01 ± 0.038.
GCGGGGGTG showed a switch fluorescence ratio of 1.01 ± 0.013.
Sequence GCGGGGGTTG has a switch fluorescence ratio of 0.978 ± 0.039.
For GCGGGGTAGG, the switch fluorescence ratio was 1.015 ± 0.0099.
GCGGGGTCGG showed a switch fluorescence ratio of 1.0083 ± 0.00048.
In the case of GCGGGGTCTG, the switch fluorescence ratio is reported as 0.985 ± 0.04.
Work on GCGGGGTTGC yielded a switch fluorescence ratio of 1.03 ± 0.033.
GCGGGTGGGG gave a switch fluorescence ratio of 1.05 ± 0.029.
For GCGGGTTAAA, the switch fluorescence ratio was 0.991 ± 0.012.
Work on GCGGTAAGGG yielded a switch fluorescence ratio of 1.016 ± 0.004.
GCGGTACGCG gave a switch fluorescence ratio of 0.953 ± 0.012.
GCGGTACGGT was tested, and the switch fluorescence ratio was 1.03 ± 0.039.
Sequence GCGGTAGGG has a switch fluorescence ratio of 1.02 ± 0.0055.
GCGGTCAAAT showed a switch fluorescence ratio of 1.005 ± 0.0018.
In the case of GCGGTCCGTT, the switch fluorescence ratio is reported as 0.9614 ± 0.0012.
Work on GCGGTGAGGG yielded a switch fluorescence ratio of 0.993 ± 0.052.
GCGGTGGGTG gave a switch fluorescence ratio of 0.994 ± 0.023.
GCGGTTCAGC was tested, and the switch fluorescence ratio was 0.985 ± 0.014.
GCGGTTCAGT gave a switch fluorescence ratio of 1.0109 ± 0.00081.
Work on GCGGTTCGTA yielded a switch fluorescence ratio of 0.9699 ± 0.0018.
GCGGTTTCAT showed a switch fluorescence ratio of 0.9984 ± 0.0098.
Work on GCGGTTTCCT yielded a switch fluorescence ratio of 1.02 ± 0.037.
For GCGTAAAACG, the switch fluorescence ratio was 0.977 ± 0.04.
Work on GCGTAAAATT yielded a switch fluorescence ratio of 0.9737 ± 0.0057.
With GCGTAAGACC the switch fluorescence ratio was 1.07 ± 0.06.
GCGTAAGCGG gave a switch fluorescence ratio of 0.981 ± 0.017.
Sequence GCGTAAGGAG has a switch fluorescence ratio of 1.06 ± 0.096.
Sequence GCGTAGGGGG has a switch fluorescence ratio of 0.95 ± 0.046.
Work on GCGTATACGC yielded a switch fluorescence ratio of 1.04 ± 0.041.
Work on GCGTATATTA yielded a switch fluorescence ratio of 0.998 ± 0.036.
GCGTATCGCG gave a switch fluorescence ratio of 0.985 ± 0.035.
Sequence GCGTCAGGAT has a switch fluorescence ratio of 1.0442 ± 0.00058.
For GCGTCGAAGG, the switch fluorescence ratio was 0.981 ± 0.047.
In the case of GCGTGCGGGA, the switch fluorescence ratio is reported as 1.02 ± 0.017.
Sequence GCGTGGGAGG has a switch fluorescence ratio of 1.018 ± 0.0053.
With GCGTGGGATA the switch fluorescence ratio was 1.03 ± 0.038.
Sequence GCGTGGGCGA has a switch fluorescence ratio of 1.03 ± 0.045.
In the case of GCGTGGGGCG, the switch fluorescence ratio is reported as 0.996 ± 0.011.
GCGTGGTCTG gave a switch fluorescence ratio of 0.971 ± 0.04.
GCGTGTGTTC was tested, and the switch fluorescence ratio was 1.08 ± 0.049.
GCGTGTTCGT gave a switch fluorescence ratio of 1.031 ± 0.0084.
For GCGTGTTGTG, the switch fluorescence ratio was 1.02 ± 0.018.
GCGTTAAGGA was tested, and the switch fluorescence ratio was 0.9835 ± 0.0056.
Sequence GCGTTACGGT has a switch fluorescence ratio of 1.02 ± 0.0057.
With GCGTTATCTT the switch fluorescence ratio was 0.99586 ± 0.00081.
In the case of GCGTTATTGG, the switch fluorescence ratio is reported as 1.03 ± 0.018.
Work on GCGTTCGGGA yielded a switch fluorescence ratio of 0.984 ± 0.021.
With GCGTTCTCGC the switch fluorescence ratio was 0.968 ± 0.016.
GCGTTGAGCT showed a switch fluorescence ratio of 0.987 ± 0.023.
GCGTTGATGA showed a switch fluorescence ratio of 1.01 ± 0.019.
Sequence GCGTTGTGGG has a switch fluorescence ratio of 1.05 ± 0.024.
For GCGTTTAGAT, the switch fluorescence ratio was 1.02 ± 0.013.
Work on GCGTTTATGG yielded a switch fluorescence ratio of 1 ± 0.02.
Sequence GCGTTTGAGG has a switch fluorescence ratio of 0.981 ± 0.017.
GCGTTTGGG gave a switch fluorescence ratio of 1.14 ± 0.15.
Sequence GCGTTTGGGG has a switch fluorescence ratio of 1.01 ± 0.043.
For GCGTTTTACT, the switch fluorescence ratio was 1.034 ± 0.0051.
GCGTTTTTCG gave a switch fluorescence ratio of 0.977 ± 0.042.
GCTAAAACCG showed a switch fluorescence ratio of 1.06 ± 0.052.
Sequence GCTAAAGGGA has a switch fluorescence ratio of 1.03 ± 0.042.
GCTAACCGGG showed a switch fluorescence ratio of 1 ± 0.0097.
For GCTAACTAGG, the switch fluorescence ratio was 1.038 ± 0.0087.
For GCTAAGGGGC, the switch fluorescence ratio was 1.03 ± 0.018.
For GCTAAGTCGG, the switch fluorescence ratio was 0.982 ± 0.0085.
Sequence GCTAAGTTTA has a switch fluorescence ratio of 0.996 ± 0.025.
GCTAATTGGG gave a switch fluorescence ratio of 1.004 ± 0.0021.
With GCTACACGAA the switch fluorescence ratio was 1.04 ± 0.027.
GCTACATGGG gave a switch fluorescence ratio of 1.02 ± 0.015.
With GCTACCTGGA the switch fluorescence ratio was 1.19 ± 0.016.
GCTACGCGCT was tested, and the switch fluorescence ratio was 1.36 ± 0.021.
For GCTAGATGTA, the switch fluorescence ratio was 1.02 ± 0.015.
Work on GCTAGTGGGG yielded a switch fluorescence ratio of 0.999 ± 0.018.
GCTATAATCG was tested, and the switch fluorescence ratio was 1.073 ± 0.0027.
In the case of GCTATCGGTT, the switch fluorescence ratio is reported as 1.01 ± 0.024.
GCTATCTGCC was tested, and the switch fluorescence ratio was 1.075 ± 0.01.
In the case of GCTATGGTTA, the switch fluorescence ratio is reported as 1 ± 0.013.
GCTATGTGTA showed a switch fluorescence ratio of 0.9748 ± 0.0051.
In the case of GCTATTGGGG, the switch fluorescence ratio is reported as 0.993 ± 0.014.
GCTATTGGTA showed a switch fluorescence ratio of 1.01 ± 0.03.
In the case of GCTATTGTTG, the switch fluorescence ratio is reported as 1.03 ± 0.021.
Work on GCTATTTAGT yielded a switch fluorescence ratio of 1.0108 ± 0.00043.
Sequence GCTATTTTTG has a switch fluorescence ratio of 0.999 ± 0.04.
Sequence GCTCAACTAA has a switch fluorescence ratio of 1.02 ± 0.02.
In the case of GCTCAAGCTA, the switch fluorescence ratio is reported as 1.15 ± 0.021.
For GCTCCTCACA, the switch fluorescence ratio was 1.67 ± 0.2.
In the case of GCTCGAAATG, the switch fluorescence ratio is reported as 1.07 ± 0.031.
In the case of GCTCGAACGA, the switch fluorescence ratio is reported as 0.995 ± 0.013.
Work on GCTCGAAGTT yielded a switch fluorescence ratio of 0.978 ± 0.029.
GCTCGCAGAT showed a switch fluorescence ratio of 1.21 ± 0.042.
GCTCGCCTGA gave a switch fluorescence ratio of 0.995 ± 0.025.
Sequence GCTCGGGGGC has a switch fluorescence ratio of 1.008 ± 0.0081.
With GCTCGGGTGT the switch fluorescence ratio was 1.15 ± 0.33.
In the case of GCTCGGTTAG, the switch fluorescence ratio is reported as 1.01 ± 0.018.
GCTCGGTTG gave a switch fluorescence ratio of 1.01 ± 0.022.
GCTCGTATTA gave a switch fluorescence ratio of 1 ± 0.016.
GCTCTATTTT was tested, and the switch fluorescence ratio was 0.997 ± 0.019.
GCTCTGGGTA showed a switch fluorescence ratio of 1.05 ± 0.0082.
Sequence GCTCTTAGTG has a switch fluorescence ratio of 0.9894 ± 0.0032.
With GCTCTTGATG the switch fluorescence ratio was 0.98 ± 0.041.
Sequence GCTGACGGTT has a switch fluorescence ratio of 0.997 ± 0.024.
With GCTGACTTGG the switch fluorescence ratio was 0.9714 ± 0.0081.
In the case of GCTGAGCGGA, the switch fluorescence ratio is reported as 0.995 ± 0.035.
Work on GCTGAGGATA yielded a switch fluorescence ratio of 0.984 ± 0.013.
Work on GCTGATATAA yielded a switch fluorescence ratio of 1.01 ± 0.019.
GCTGATCTTA was tested, and the switch fluorescence ratio was 0.998 ± 0.034.
